Experiments:
[1] = molecular target: T1, hNectin-2 on cells (CHO cells expressing hNectin-2); RPMI-8866 cells overexpressing hNectin-2; human tumor … (human, UniProt Q92692 32-538); test: FACS on the CHO cells expressing hNectin-2 of FIG. 7C
T1 construct: whole, on cells
T1 sequence (looked up): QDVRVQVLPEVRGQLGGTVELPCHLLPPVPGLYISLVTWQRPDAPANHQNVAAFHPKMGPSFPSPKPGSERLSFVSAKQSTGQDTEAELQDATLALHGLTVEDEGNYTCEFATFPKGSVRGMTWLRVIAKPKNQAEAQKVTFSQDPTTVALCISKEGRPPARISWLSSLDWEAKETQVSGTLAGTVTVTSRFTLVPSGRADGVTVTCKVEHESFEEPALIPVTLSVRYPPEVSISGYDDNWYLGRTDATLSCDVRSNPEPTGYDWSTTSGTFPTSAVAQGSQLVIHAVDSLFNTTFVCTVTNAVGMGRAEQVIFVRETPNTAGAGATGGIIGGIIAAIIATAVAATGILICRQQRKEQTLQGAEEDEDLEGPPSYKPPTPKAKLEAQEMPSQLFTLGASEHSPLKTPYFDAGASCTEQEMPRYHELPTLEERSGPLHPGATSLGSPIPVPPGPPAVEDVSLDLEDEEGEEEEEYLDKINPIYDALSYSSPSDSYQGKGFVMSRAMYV

[2] = molecular target: T2, human PVR on cells (endogenous on HepG2 and other human tumor cell lines); full-length hPVR overexpressed in … (human, UniProt P15151 21-417); test: cell-based or functional assay
T2 sequence (looked up): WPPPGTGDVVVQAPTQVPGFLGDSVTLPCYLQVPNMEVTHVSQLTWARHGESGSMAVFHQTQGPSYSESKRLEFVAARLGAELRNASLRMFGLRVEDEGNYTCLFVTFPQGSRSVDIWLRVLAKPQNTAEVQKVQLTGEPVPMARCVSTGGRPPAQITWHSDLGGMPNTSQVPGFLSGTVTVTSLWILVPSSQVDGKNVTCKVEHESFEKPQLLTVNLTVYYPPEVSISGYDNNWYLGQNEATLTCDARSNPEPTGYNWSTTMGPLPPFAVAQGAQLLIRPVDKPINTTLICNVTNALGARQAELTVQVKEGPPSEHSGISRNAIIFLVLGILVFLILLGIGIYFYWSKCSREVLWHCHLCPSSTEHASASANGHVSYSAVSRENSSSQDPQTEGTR

[3] = molecular target: T3, human PVR on cells (endogenous on HepG2 and other human tumor cell lines; full-length hPVR overexpressed in B16 cells) (human), P15151; test: FACS on B16-hPVR cells, anti-human-IgG APC detection; conditions: remark: other sources report otherwise
T3 chain: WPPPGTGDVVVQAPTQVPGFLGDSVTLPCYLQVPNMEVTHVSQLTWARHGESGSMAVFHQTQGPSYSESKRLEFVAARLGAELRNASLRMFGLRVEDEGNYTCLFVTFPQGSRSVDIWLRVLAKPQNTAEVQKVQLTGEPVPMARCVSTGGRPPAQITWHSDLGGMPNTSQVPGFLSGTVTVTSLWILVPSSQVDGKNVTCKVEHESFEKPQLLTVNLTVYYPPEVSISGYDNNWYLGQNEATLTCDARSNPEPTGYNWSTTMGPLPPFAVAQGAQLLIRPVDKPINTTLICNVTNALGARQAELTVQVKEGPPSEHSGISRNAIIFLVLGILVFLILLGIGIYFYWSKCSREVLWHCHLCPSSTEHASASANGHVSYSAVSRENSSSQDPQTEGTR

[4] = molecular target: T2, human PVR on cells (endogenous on HepG2 …); test: cell-based or functional assay; remark: listed apart in the source

B1: anti-PVR monoclonal antibody 7D4 (antibody, mouse IgG1, V domains shown)
VH: EVQLQQSGPELVKPGASVKISCKTSGYTFTEYTMHWVKQSHGESLEWIGGIDPNNGGTNYNQNFKGKATLTVDKSSSTAYMELRSLTSEDSAVYYCAGVIPLEYWGQGTSVTVSS
VL: DIVMTQSQKFMSTSVGDRVSVTCKASQNVYTNVAWYQQKPGQSPKALIYSASYRYRGVPDRFTGSGSGTDFTLTISNVQSEDLADYFCQQYNSYPLAFGSGTKLEIK
notes: also called hPVR.01; PVR.01
- binding result [1]: no binding
- NK cell killing of the human breast adenocarcinoma cell line MDA-MB-231 ([35S]-Methionine release, specific killing) [2]: 2 fold

B2: anti-PVR monoclonal antibody 4E5 (antibody, mouse IgG1, V domains shown)
VH: EVKLLESGGGLVQPGGSLKLSCAASGFDFSRYWMTWVRQAPGKGLEWIGEIHPDSSKINYTPSQKDKFIISRDNAKNTLFLQMSKVRFEDTALYFCARPDGNYNALDYWGQGTSVTVSS
VL: DIVMTQSHKFMSTSVGDRVSITCKASQDVGTAVTWYQQKPGQSPKLLIYWASTRHTGVPDRFTGSESGTDFTLTISDVQSEDLANYFCQQYSRYPYTFGGGTKLEIK
notes: also called hPVR.07; PVR.07
- binding result [1]: no binding

B3: Human TIGIT-Fc, Q495A1 22-141 (Fc fusion, UniProt Q495A1 22-141, looked up, not shown: a dimerising Fc or GST)
chain: MMTGTIETTGNISAEKGGSIILQCHLSSTTAQVTQVNWEQQDQLLAICNADLGWHISPSFKDRVAPGPGLGLTLQSLTVNDTGEYFCIYHTYPDGTYTGRIFLEVLESSVAEHGARFQIP
- fold signal against DNAM-1-Fc [3]: 2 to 4 fold

B4: anti-PVR monoclonal antibody 5B9 (antibody, mouse IgG1, V domains shown)
VH: QVQLQQSGAELMKPGASVKISCKATGYTFSNYWIEWIKQRPGHGLEWIGEIFPGSGRINFNEKFKGKATFTADTSSDTTYMQLSSLTSADSAVYYCARTKIYGNSFDYWGQGTTLTVSP
VL: DIMMTQSHKFMSTSVGDRVNITCKASQDVGTAVVWYQQKPGQSPKLLIYWASSRHNGVPDRFTGSGSGTDFTLTISNVQSEDLSDYFCQQYSRYPLTFGAGTKLELK
notes: also called hPVR.09; PVR.09
- Percentage of dead cells within 24 hrs relative to mIgG treated cells (MTT), A549 [4]: 25%
- Percentage of dead cells within 24 hrs relative to mIgG treated cells (MTT), HCT-116 [4]: 22%
- Percentage of dead cells within 24 hrs relative to mIgG treated cells (MTT), MDA-MB-231 [4]: 20%
- Percentage of dead cells within 24 hrs relative to mIgG treated cells (MTT), Mel-624 [4]: 32%
- binding result [1]: no binding

Reference: patent US20200040092A1 (YISSUM RESEARCH DEVELOPMENT COMPANY OF THE HEBREW …, published 2020)
